# Results taken from a protein production outcome set (Wang et al. 2014).
# Assay: label from the status in PepcDB records
row,Sequence,protein production
1,MEALGPGGDRASPASSTSSLDLWHLSMRADSAYSSFSAASGGPEPRTQSPGTDLLPYLDWDYVRVVWGGPGPAPPDAALCTSPRPRPAVAARSGPQPTEVPGTPGPLNRQATPLLYALAAEAEAAAQAAEPPSPPASRAAYRQRLQGAQRRVLRETSFQRKELRMSLPARLRPTVPARPPATHPRSASLSHPGGEGEPARSRAPAPGTAGRGPLANQQRKWCFSEPGKLDRVGRGGGPARECLGEACSSSGLPGPEPLEFQHPALAKFEDHEVGWLPETQPQGSMNLDSGSLKLGDAFRPASRSRSASGEVLGSWGGSGGTIPIVQAVPQGAETPRPLFQTKLSRFLPQKEAAVMYPAELPQSSPADSEQRVSETCIVPAWLPSLPDEVFLEEAPLVRMRSPPDPHASQGPPASVHASDQPYGTGLGQRTGQVTVPTEYPLHECPGTAGADDCWQGVNGSVGISRPTSHTPTGTANDNIPTIDPTGLTTNPPTAAESDLLKPVPADALGLSGNDTPGPSHNTALARGTGQPGSRPTWPSQCLEELVQELARLDPSLCDPLASQPSPEPPLGLLDGLIPLAEVRAAMRPACGEAGEEAASTFEPGSYQFSFTQLLPAPREETRLENPATHPVLDQPCGQGLPAPNNSIQGKKVELAARLQKMLQDLHTEQERLQGEAQAWARRQAALEAAVRQACAPQELERFSRFMADLERVLGLLLLLGSRLARVRRALARAASDSDPDEQASLLQRLRLLQRQEEDAKELKEHVARRERAVREVLVRALPVEELRVYCALLAGKAAVLAQQRNLDERIRLLQDQLDAIRDDLGHHAPSPSPARPPGTCPPVQPPFPLLLT,failed
2,MQGGSSGIGYGLKYQARCISDVKADRDHTSFLTGTLSLKEENEVHLLRLSSGGSELLCEGLFSHPNEIWDLASSPFDQRIFSTVFSTGDSYGAAIWQIPEPYGQSNSSTLECVASLDAHVGKINCVLWCPSGNSDKLISMDEQNLVFWSLDSSKKSAEVLSKESAGMRHSLSGGAWNPHDVNSVAATSESSIQFWDLRTMKKNNSIERAHVRNVDYNLKREHILVSADDESGIHLWDLRKTKFPVQELPGHTHWTWAVRCNPEYEELILSVGTDSAVNLWFASASSEHKTSESPVEASRQRVNPLLNSYTDYEDSVYGLAWSSREPWIFASLSYDGRVVIESVKPFLPRR,not failed
3,MSSPSRTVTLPDIMCPKCIKCGSERTHHSRVRPSERTLSMLFLRPIRCRQCKERFWVKNSNAFLALGGVLFIGALLITTVWLIIEHNMADPYAGSAPEIGTEDPADSVARGTSKSQNGQEALSAPAPGTRGTHDVTQSPGSIPSSAPARNPLEDHRFTVRLYQEAANNGDADSQYKLGLLYLTGNGALQDFAEAAKWLQLAAEQGYGPAQYELGLIYRNGYGLPTDHVQSYVWLNLAAAAGVQQAMGARDEVMRALSSKQLAQAQKISREWLAARTGPESGKEADRVESAHPRRK,failed
4,MAKKVVGEIKLQIPAGKANPSPPVGPALGQRGVNIMEFCKAFNERTKDMGSFNIPVIITVYQDKSFTFITKKPPVTDLIKKASGVEKGSDNPLKNKIAKLTHKQVEEIAQLKMEDLNTSTMEAAKKIVMGSARSMGVEVVD,failed
5,DKIHMLKQQNIIGIGTHNGITTIHTTNHKYETTEPLNRYEKRLNPTYFIRIHRSYIINTKHIKEVQQWFNYTYMVILTNGVKMQVGRSFMKDFKASIGLL,failed
6,MDNFVVTFARGFGTGGKAIASQLAKELGIHCYENRILTLASQLSGLDENVFQEVNEKLREEGGFTSFLRGLPRAKGYISRNEKFKSDDRLFEYQSQIINELADKESCVIVGKCADYVLKNRPNVVSIYIEAPRAFCVERTITNMGVTPEVANATIERTDKFRADYYKYYTHGNYWTNPVNYDLTLNSERVGVENCVKTIEQYLIIKGFIKADMIKPAGELI,failed
7,MSVETAQRSEVGVAMARSWLLVPAVGSEVLAAAAASGADSLVIDLEDGLPFAAKDEGRARTAEWLARNAGWVRINDATTPHWQRDLDAIRGLPGVRGLMLSKTESPEQVRDTAEGIPGIPVVALVESAAAIVAADDIARTAPVSRLAFGIGDYCRDTGAGRTPMALAYARSRLVNASRAARIGAPIDGPTLSLDAEAVRDDTRLAREMGMTGKLTLATEQVPVINTALAPDSNDISWAETTIARLGADGSRVTHGGHPPQLARAHDILRRAAHFASRT,failed
8,MSASIMTWPVLSVVTFLPVLGAALVYLARGEDEAARRNARWISLWTTLITFAVSLLLVWHFDPANPGFQFVEKAPWLGNTITYHMGLDGISLPLVILTTAIMPFCIIASWRSVTVRVREYMIAFLILETLMIGTFSALDLVLFYLFFEGGLIPMFLIIGIWGGPRRVYASFKFFLYTLLGSVLMLLAIMALYWNAGTTDIPTLMRTSVPSGLQTWAWLAFFASFAVKMPMWPVHTWLPDAHVEAPTAGSVVLAAILLKMGGYGFLRFSLPMFPDASAYFAPLIYTLSVIAIIYTSLVALMQEDIKKLIAYSSVAHMGFVTMGIFAGTTQGVAGAVFQMVSHGIVSGALFLCVGVVYDRMHTREIAAYGGLVNRMPLYALVFMVFTMANVGLPGTSGFVGEFLTLLGTFRVNIPTATLATTGVILSAGYALWLYRKVVFGAMTKPALASIKDLTWREGLMMAPLLVLTILFGFYPKPVLDMSAASVQQLVNNYAAAVTAVKAAALP,failed
9,MTNQDNNHQLNHRIYHFEKIYKAIKHVIVFIFMIFIAIVAIAVIAMSLYFHHLTKTSDSLSDDALIKKVRQIPGDELLDHNNKNLLYEYNHSQNSLIIGPKTSSPNVIKALTSSEDTLFYKHDGILPKAILRAMIQDIFNTDQSSGGSTITQQLVKNQVLTNEKTYSRKANELRLAIRLEHLLSKDEIIYTYLNIVPFGRDYNGANISGIASASYSLFGIPPKDLSIAQSAYLIGLLQSPYGYTPYEKDGTLKSDKDLKYSIQRQHYVLKRMLIEDQITEKEYNDALKYDIKSHLLNRKKR,failed
10,MIKGNKMASFSQVSFSIPQRVIHWAMALLIFFNLLFPDAMAHAYRLMRRGETLTPDQISSANIHAYVGFAILLLAVLRLCLRFFQGVPPHPAEEPRASQIAAKAAHFTFYVLFFILPLSGIAAYYFGIATAGELHSGPFKAVMWVLIAGHVAAVLVHQFYWRTNVLKRMTHG,failed
11,MNGDFYVDTTCIDCDTCRWMTPEVFHRVDEMSAVYHQPTNETERLAALQALLSCPTSSIGTVEKLEHHHHHH,failed
12,LPLCDSLIIWLQTFKTASPCQDVKQLTNGVTMAQVLHQIDVAWFSESWLSRIKDDVGDNWRIKASNLKKVLHGITSYYHEFLGQQISEELIPDLNQITECADPVELGRLLQLILGCAVNCEKKQEHIKNIMTLEESVQHVVMTAIQELMSK,not failed
13,MKHEWRKFEKELYGVKAKPIFLEVEEQRFITIKGKGNPNDQDFSNRVSALYALAYGIKMAYKQAMKTEQDDRAVTDFAVYPLEGLWQQAKDAKEDTLEKDKLSYTIMIRQPEFITKELVDQALDRVKIKKPNSFYESISFESIKDGKCIQVLHIGSYDDEPQSFAKMDAFAKEHGLKRSSDIHREIYLSNAQRTEKSKLKTILRYQVEEK,failed
14,MSVAETEIPIPAATPSLTDACVHCGFCLSDCPSYRVLGRETDSPRGRVYLMDSLQQGRIELSDTVVEHFDTCLGCLACTSACPSGVQYDQLIEEMRQRIAQEHRRPWPEAIWRKLLFAFLPYPERLRPILRLGQLYQSSGLQNWLNRQPLLQKFPQLAAASALLPPLSPASFQDNWPTLLPALGDRRYRVGLLLGCVQRLFNPEVNAAAIRVLRANGCDVVIPPQQGCCGAVAHHQGEMQQAQDLARAVIRSFEAENLDAILVTASGCGHTLKHYGAILADDPEWCDRAQQLADRVQDVQEFLATVGLTTPLHPLQEQPLVVVYQDACHMLHGQKIRNQPRQLLQQIPGIELREPVDAQLCCGSAGIYNLLQPAIAAELGQQKARSLAETGAQMIASANIGCYVQIRHHLQAQSKDLPVLHPLQIIDRAMNFQNH,failed
15,MEPCSSDEFFQALNHAEQTFKKMENYLRHKQLCDVILVAGDRRIPAHRLVLSSVSDYFAAMFTNDVREARQEEIKMEGVEPNSLWSLIQYAYTGRLELKEDNIECLLSTACLLQLSQVVEACCKFLMKQLHPSNCLGIRSFADAQGCTDLHKVAHNYTMEHFMEVIRNQEFVLLPANEIAKLLASDDMNIPNEETILNALLTWVRHDLEQRRKDLSRLLAYIRLPLLAPQAPGLELSSPDLHSKDLAHSAISSTPK,failed
